In paper doi:10.1101/2021.03.17.435802 (bioRxiv, 2021):

B1: LY-CoV555 (antibody, V domains shown)
VH: QVQLVQSGAEVKKPGSSVKVSCKASGGTFSNYAISWVRQAPGQGLEWMGRIIPILGIANYAQKFQGRVTITADKSTSTAYMELSSLRSEDTAVYYCARGYYEARHYYYYYAMDVWGQGTAVTVSS
VL: not shown
B2: REGN10933 (antibody, V domains shown)
VH: QVQLVESGGGLVKPGGSLRLSCAASGFTFSDYYMSWIRQAPGKGLEWVSYITYSGSTIYYADSVKGRFTISRDNAKSSLYLQMNSLRAEDTAVYYCARDRGTTMVPFDYWGQGTLVTVSS
VL: DIQMTQSPSSLSASVGDRVTITCQASQDITNYLNWYQQKPGKAPKLLIYAASNLETGVPSRFSGSGSGTDFTFTISGLQPEDIATYYCQQYDNLPLTFGGGTKVEIK

Biological target: SARS-CoV-2 S1 WT (in-house) (SARS-CoV-2, UniProt P0DTC2)
Experiment: SPR

Binder | binding result
B1 | binds
B2 | binds
